B1: baculovirus-expressed S. purpuratus katanin p60 subunit with N-terminal His(6) tag (enzyme)
chain: HHHHHHMSVDEICENTKMGREYALLGNYETSLVYYQGVLQQIQKLLTSVHEPQRKHQWQTIRQELSQEYEHVKNITKTLNGFKSEPAAPEPAPNHGRAAPFSHHQHAAKPAAAEPARDPDVWPPPTPVDHRPSPPYQRAARKDPPRRSEPSKPANRAPGNDRGGRGPSDRRGDARSGGGGRGGARGSDKDKNRGGKSDKDKKAPSGEEGDEKKFDPAGYDKDLVENLERDIVQRNPNVHWADIAGLTEAKRLLEEAVVLPLWMPDYFKGIRRPWKGVLMVGPPGTGKTMLAKAVATECGTTFFNVSSASLTSKYHGESEKLVRLLFEMARFYAPSTIFIDEIDSICSKRGTGSEHEASRRVKSELLIQMDGVSGPSAGEESSKMVMVLAATNFPWDIDEALRRRLEKRIYIPLPEIDGREQLLRINLKEVPLADDIDLKSIAEKMDGYSGADITNVCRDASMMAMRRRIQGLRPEEIRHIPKEELNQPSTPADFLLALQKVSKSVGKEDLVKYMAWMEEFGSV
notes: Expressed from pFastBac HT in Sf9 cells; also called p60 katanin; recombinant p60
B2: baculovirus-expressed S. purpuratus katanin p80 subunit with N-terminal His(6) tag (other)
chain: HHHHHHMATKRAWKLQELVAHSSNVNCLALGPMSGRVMVTGGEDKKVNLWAVGKQNCIISLSGHTSPVDSVKFNSSEELVVAGSQSGTMKIYDLEPAKIVRTLTGHRNSIRCMDFHPFGEFVASGSTDTNVKLWDVRRKGCIYTYKGHSDQVNMIKFSPDGKWLVTASEDTTIKLWDLTMGKLFQEFKNHTGGVTGIEFHPNEFLLASGSSDRTVQFWDLETFQLVSSTSPGASAVRSISFHPDGSYLFCSSQDMLHAFGWEPIRCFDTFSVFWGKVADTVIASTQLIGASFNATNVSVYVADLSRMSTTGIAQEPQSQPSKTPSGGAEEVPSKPLTASGRKNFVRERPHTTSSKQRQPDVKSEPERQSPTQDEGVKDDDATDIKDPDSYAKIFSPKTRVDHSPERNAQPFPAPLDVPGAQEPEPFKHPPKPAAAAAVAPVSRAPAPSASDWQPAQANPAPNRVPAATKPVPAQEVAPSRKPDPISTIIPSDRNKPANLDMDAFLPPAHAQQAPRVNAPASRKQSDSERIEGLRKGHDSMCQVLSSRHRNLDVVRAIWTAGDAKTSVESVVNMKDQAILVDILNIMLLKKSLWNLDMCVVVLPRLKELLSSKYENYVHTSCACLKLILKNFTSLFNQNIKCPPSGIDITREERYNKCSKCYSYLIATRGYVEEKQHVSGKLGSSFRELHLLLDQLE
notes: Expressed from pFastBac HT in Sf9 cells; also called p80 katanin; recombinant p80

Data set [1] concerns the molecule itself. Put plainly: rotary-shadowing electron microscopy of recombinant p60 on mica (self-association into rings).
Data set [2] concerns the target B2. The data set is described as follows: co-immunoprecipitation from insect cells co-infected with p60 and p80 baculoviruses, SDS-PAGE with Coomassie. The procedure:
6xHis-tagged (SEQ ID NO:14) katanin subunits were purified from lysates of baculovirus-infected insect cells by binding to Ni^2+-NTA Superflow followed by elution with imidazole, as described in the Experimental Procedures. […] Proteins bound to the resin were analyzed by SDS-PAGE followed by staining with Coomassie.
After equilibration in TBST, 20–40 μl of antibody beads were added to katanin samples diluted in TBST containing 1–2 mg/ml soybean trypsin inhibitor (SBTI). The immunoprecipitations were incubated at 4° C. for 1–2 hr, washed five times with 1 ml of ice-cold TBST, and eluted in SDS-containing sample buffer.

In data set [3] the target is B1. Put plainly: Ni-NTA purification of co-expressed His-tagged subunits, Coomassie-stained SDS-PAGE.

Data on two molecules can be found in patent US6872537 (University of California, dated 2005).

B1: the binding result in data set [1] and in data set [2] was “binds” throughout.

As for B2, in data set [3], the “p60:p80 molar ratio in the purified co-expressed protein” value was ~0.9 mol p80 per mol p60.
